In publication PMC8629852 (Archives of biochemistry and biophysics, 2021):

Tests used:
adrenodoxin = adrenodoxin (UniProt P00257); conditions: cited from earlier work
[1] = target: adrenodoxin (Homo sapiens) (UniProt P10109); test: microscale thermophoresis; conditions: cited from earlier work
cross-linking = target: the molecule itself; test: cross-linking

AdR (from UniProt P08165)
Kd (adrenodoxin): 70 nM

P450 27C1 (from UniProt Q4G0S4)
Kd [1]: 220 nM

B1: Human adrenodoxin (Adx), unlabeled (natural protein, UniProt P10109 61-184, looked up)
chain: SSSEDKITVHFINRDGETLTTKGKVGDSLLDVVVENNLDIDGFGACEGTLACSTCHLIFEDHIYEKLDAITDEENDMLDLAYGLTDRSRLGCQICLTKSMDNMTVRVPETVADARQSIDVGKTS
stoichiometry N (cross-linking): 2
